In patent US20060172407A1, “Bacterial cell digestion” (priority 2002, published 2006):

B1: domain 3 of EF-Tu: Polypeptide containing solely domain 3 (amino acids 299 to 394) of E. coli EF-Tu, expressed intracellularly from an introduced gene segment (protein)
chain: IKPHTKFESEVYILSKDEGGRHTPFFKGYRPQFYFRTTDVTGTIELPEGVEMVMPGDNIKMVVTLIHPIAMDDGLRFAIREGGRTVGAGVVAKVLG

System: E. coli
Test: Tests with E. coli: expression of the domain 3 of EF-Tu in cells, electron microscope pictures
Format: cell-based, Escherichia coli
From the text: One especially advantageous procedure of the invention is as follows. The DNA segment of the EF-Tu gene of Escherichia coli that codes for the domain 3 is obtained and by means of molecular-genetic techniques is transferred into E. coli cells and expressed. In addition to this recombinant segment that contains solely the domain 3, but not domains 1 and 2 of EF-Tu, the cells as before have the native EF-Tu gene and can express it. The additionally synthesized domain 3 polypeptides, however, compete with the native EF-Tu proteins around the binding sites for the formation of the protofilaments. If a domain-3 polypeptide instead of a native EF-Tu protein is incorporated as a link, this leads to chain rupture as a result of the absence of the second binding site (the domain 2 is essential for chain formation) on the domain-3 polypeptide. […] As a result of the loss of integrity of the cytoskeleton, the cytoplasmic membrane of the cell loses it suspension. […] In this way, the cell wall that in the living bacteria cell is positioned and supported by the cytoplasmic membrane is destroyed (see FIG. 5). The loss of the cell wall and the cytoplasmic membrane means exposure of the contents of the cell so that the cell is lysed (cf. FIGS. 5 and 6). The cell contents can thus be recovered without further cell digestion.
Tests with E. coli, Electron microscope pictures, negative contrasting • a) Intact bacteria cells, containing their chromosome and in addition an empty vector (plasmid) that was used in continuing tests as a vector for introducing the domain-3 gene segment. These cells therefore represent controls. • b) Cells of a young culture. A plasmid that in expressible form contains the gene segment that codes for the domain 3 of EF-Tu had been introduced into these cells before the start of cultivation, in addition to its own native chromosome (that does contain the gene that codes intact EF-Tu). The effect of the expression of this “truncated” gene can be clearly seen: In addition to some cells that appear intact (they are recognizable as already weakened in their cell coating with a more exact analysis), the picture is determined by cell residues that indicate the original cell form, but have neither a wall nor CM. The wall and the CM have lost their suspension by destabilization of the cytoskeleton. […] The onetime cell form can no longer be detected; the cell residues form unorganized aggregations

[1] = ultrathin section, expressed in addition to the cell's own EF-Tu

| Molecule | state of the cells in electron microscope picture [1] | state of the cells in electron microscope picture (negative contrasting, cells of a young culture, plasmid expression in addition to native EF-Tu) | state of the cells in electron microscope picture (negative contrasting, old culture) |
| --- | --- | --- | --- |
| EF-Tu: Full-length bacterial elongation factor EF-Tu introduced by genetic engineering and expressed in addition to the cell's own EF-Tu (control) [reference compound] | the cell is intact |  |  |
| B1 | End stage of the dissolution of the cells | The cell contents are exposed | End stage of the dissolution of the cells |
